We go through 23 sequences from the DeepSol protein solubility set.

The data set can be described thus: soluble on expression in E. coli; label from the status in PepcDB or PDB records.
On to “STKLLYLKPIQTGFPSDSDSRFVFSKLDSLSLRRQIPISISNSVLHSSLPAAKSLGLNVEVSESGMCSLNFRDEKTVTGAPELLCKTLYAWEAAISPHLAAERENATVEDSVVLQMIEKCLKEEMECGVKSEKSDLLCLVETAGGVASPGPSGTLQCDLYRPFRLPGILVGDGRLGGISGTIAAYESLKLRGYDIAAVVFEDHGLVNEVPLTSYLRNK”, for which the “soluble on expression in E. coli” value is listed as “soluble”.

Take “NTQLNIKMQPDTQTLDEVVVIGYGTVKKRDLTGAVASVKSEDIVRMPTSNVLEAIQGQVAGLDITRSSGEAGSGVNMTLRGTRSINGDNSPLFIIDGMEGSYDELNPNDIASIEVLKDASSTAVYGAAGANGVIIITTKTPKKDK”: the “soluble on expression in E. coli” value is on record as “not soluble”.

Regarding “MPSEKAFIQHLRTASFQGLHLHHFHQKVGKCGVVGFDIHIFPTLLPAAQGILDIQLGLFRIDCAPLAVYRRTQVDFIHTVIDGIASDQAFSEVVQILRRLNLGHFTDTHLIAQARRFIADFGNIRPMRRGKAETFCRCFRFDGIDRIHGDFRQCGHINRLAAGKNCRNGKRDKVFFHAPIIIKFALRKQIVRQEK”, the “soluble on expression in E. coli” value is on record as “not soluble”.

In the case of “SNAMKIIFSASPANRAAAYALRQAVFVEERGISADVEFDVKDTDQCEYAVLYLQPDLPITTLRLEPQADHVMRFGRVCTRKAYRGHGWGRQLLTAAEEWATQRGFTHGEIHGELTAQRFYELCGYRVTAGPYDEDGAPVVIMHKQLL”, the “soluble on expression in E. coli” value is recorded as “soluble”.

On to “MAHHHHHHMEEQVDLEKALAVAIKAAQSAGNIMLEFYQLRREDTAAKMMRLLKEGGSHTTGELAASPKPTPVDLLDIKTKSSSTDLVTHYDKLCDETIMKILQRFNAKVEDEKRNEPSEAFSFQFITEELTPDTPLTDEPTWIVDPIDGTMSFVHGGCDCCISIGLAIKKQTVLAVVYCPFLSIVQHSVEDLRSTSAVAGELYTAIRGKGTFLNGQPIRVSADALPNTALVAFNYPMGARLSAAEIPSDSAQVGVLKRQKHRKVVEAAGHIREQLAMHPVQGIRSYGSCALILAQVAAGRIDLYMEPAGMVWDVCAGSLLITEAGGVVKNMWGGDFGLEGTTTIIAAANETLADYGIQLCTQVNYGDYWKK”, for which the “soluble on expression in E. coli” value was “soluble”.

As for “MSDNLKIGLQYLTPKHALTRLAGKLASAKMGWLTTAVIKWFIKQYNVNMDEAKNPDPEAYSTFNNFFVRELEDGARPINEDDSVISHPADACVSQFGPIMDGKLVQAKGHVYSAQELLGGDEALAAEFMGGEFATLYLSPSDYHRVHMPCDATLRKMIYVPGDLFSVNPLTAENVPNLFARNERVVCIFDTEFGPMAQILVGATIVGSIETTWAETVTPPTGPAVKTWHYPLSGDDMICFKKGEEMGRFKLGSTVINLFAPNSIKFDDSMENGTPTRMGTPFAHIVKLEHHHHHH”, the “soluble on expression in E. coli” value was “soluble”.

For the sequence “MALMSDKFLSIVIPAYNSEKYIEKNLMFLSRQTSNNFEVIVVDDGSTDNTCEVSEACLENFKINHRVIRCEENRGQSVARNIGINYSRGKYILFLDSDDFAENNLVQILERNMFNEPDIVFFDYKRIKEGDSVNVNIAQNFEFGKIKSGEEVFNAYKDNKIRLWTGSLVYNKEFLNKNKLRFLEGAHGAEDLNFIFKALLSSKKVRGIEDSLVFYCQRGDSLTNNPDIYKNITVVESMEDVAKFIDENKLDKKLKEAIEKEFTCEHIMYQILGYLNSETKKDTLSVLKNKNVKKYLKKATIKTNRYGRSMYTYMKMAAYFPNLFIKTYLKNTGKLEHHHHHH”, the “soluble on expression in E. coli” value is given as “soluble”.

Regarding “MSDDHHDDEHFHTGDSGAAATFPKQCSALRKNEHVMIKGRPCKIVEMSTSKTGKHGHAKVHMVAIDIFTSKKLEDICPSTHNMDVPVVKRREYLLMAIDDGYCSLMDPESCEQKDDLKLPDTELGQQIRDAYEKDEGSVLVQVVSAIGEEAILGWKVSTKE”, the “soluble on expression in E. coli” value is recorded as “not soluble”.

With “MKKKIAEYEVGEQVDIFLLIKTATKGIASNGKPFLTVILQDPSGDIEAKLWDVSPEVEKQYVAETIVKVAGDILNYKGRIQLRVKQIRVANENEVTDISDFVEKAPVKKEDMVEKITQYIFEMRNPNIQRLTRHLLNKHQNEFLDYPAATKNHHEFVSGLAYHVVSMLDLAKAISNLYPSLDKDLLYAGVILHDLGKVIELSGPISTTYTLEGNLLGHISIMVNEIGKAADELQIDAEEVLILQHIVLSHHGKAEWGSPKPPLVKEAEILHYIDNLDAKMNMMDRALGRTKPGEYTERVFALDNRSFYKPSFHN”, the “soluble on expression in E. coli” value is on record as “not soluble”.

Turning to “MPRFMRTQTKLRTIIRSNLMLNSSSMEISRSLTSWQKGARSIIHRALQYLEGNLTVIEHFPDQTQTTHEQFGQDKPDAIHAVIEIKHPDFYSRVLKGGSIAAAEAYMEGWWESPNLTALMQLMAANLGTLDKLESQSSPVTQWLNRFTHWLKRNTIDQAKDNIHQHYDLGNELYQLFLDEEMLYSSALFTQPELSLEQAQQAKMQRLCEQLQLKPTDHVLEIGTGWGAMAIYMAQHYGCKVTTTTISEEQYAYAQQKITALGLNNQITLLKQDYRLLSGQYDKLVSIEMIEAVGKAYLPTFLSQCYALLKPRGKMAIQAITIADQRYESYSNNVDFIQKYIFPGGFLPSISVLTELATKRTGLVLRNLHDIGIDYALTLQHWRDRFEQQLPKVRDLGYDERFIRMWRYYFCYCEGGFLARSISTVHMTFERD”, the “soluble on expression in E. coli” value is “not soluble”.

“GPLGSPEFMEGVLYKWTNYLTGWQPRWFVLDNGILSYYDSQDDVCKGSKGSIKMAVCEIKVHSADNTRMELIIPGEQHFYMKAVNAAERQRWLVALGSSKASLTDTRT”: the “soluble on expression in E. coli” value was “soluble”.

In the case of “VKKIKDIGEVAGGSTPSTKIKEYWGGDIPWITPKDLANYEYIYISRGERNITEKAVKECSLRIFPKGTILLTSRAPIGYVAIAKNPLTTNQGFRNIIPKDGVVSEYLYYLFKTKTMSEYLKDISGGSTFPELKGSTLKEVEIPYPSPEEQQKIATVLSYFDD”, the “soluble on expression in E. coli” value is given as “not soluble”.

In the case of “MGSDKIHHHHHHLETSPSSSVSGNELLGTATNALVSLNGVYRAMYTAGVSNSSNTHQCFGITAYNLVADVMGEDCIMNGQGSGWFWYDCVYNVKSRYTSTGWRSYDMWNGYYTWISNVNYILAEEETMSGSETEKNYVLGQAYAVRAYSYFMLAQMFSRTYKGHESEPCVPLYTEPTDIATEGKGRATIEEVYQQITSDLDKAITMLGNSGKRKHISHINEAVASGIKARVALVMEDWQTALDAANAAISKSGCSVGTGTAVTGGMNDATANNVMWAAEIIADQSGMYAGFFTHMDADQGKYGASARKQINKLLYAKLGTNDVRKKWWNPQDENNEKNGYQQEKFKFKDYAKWTGDYIFMRIEEMFLTAAEASCRLNDDKGARLMLNSLMQKRDEDYTCKKTGTALGKLTSDETGSLLEEIIIQRRIELWGEFGRIYDIRRLKQGFRRTADMGWPSSALIAGTDTEDPESYAWVLTIPQTEFDGNPNMDPSKDQNPIGDHK”, the “soluble on expression in E. coli” value was “not soluble”.

Regarding “MSLSTGDASGAPAVWSHGYTEASGVKNKLCVAALSVNNFCDNREALYGVFDGDRNVEVPYLLQCTMSDILAEELQKTKNEEEYMVNTFIVMQRKLGTAGQKLGGAAVLCHIKHDPVDPGGSFTLTSANVGKCQTVLCRNGKPLPLSRSYIMSCEEELKRIKQHKAIITEDGKVNGVTESTRILGYTFLHPSVVPRPHVQSVLLTPQDEFFILGSKGLWDSLSVEEAVEAVRNVPDALAAAKKLCTLAQSYGCHDSISAVVVQLSVTEDEGHHHHHH”, the “soluble on expression in E. coli” value was “soluble”.

For “GSHMEAPILYEDPPEKLTSKDGRAANMKITSWNVDGLRAWVKKNGLDWVRKEDPDILCLQETKCAEKALPADITAMPEYPHKYWAGSEDKEGYSGVAMLCKTEPLNVTYGIGKEEHDKEGRVITAEFPDFFLVTAYVPNASRGLVRLDYRKTWDVDFRAYLCGLDARKPLVLCGDLNVAHQEIDLKNPKGNRKNAGFTPEEREGFTQLLEAGFTDSFRELYPDQAYAYTFWTYMMNARSKNVGWRLDYFVLSSALLPGLCDSKIRNTAMGSDHCPITLFLAV”, the “soluble on expression in E. coli” value was “soluble”.

Take “MGSDKIHHHHHHMMLVQLRQVGVIRSPYKNFSKAPHQGRFSKETVEIEIFPEFEDGLKDIETCTHLIVLYWLDRANRDALLVVPPHDSREHGVFATRSPHRPNPIGFAVVELLERDGRVLKVKGLDALDGTPVVDIKPYSSTIDSVGNAKIGWFEEANPQSKLTRLLLRAKEFHGHICPFVALGVRMSVIAMEKLGVEEDAMASVGEDILAIVECNNCLTDGVQVATGCTLGNNSLIYLDLGKNALTIVRRKDWKGVRVYVNAENVRKYFSKEALELFNKVIVRREGSEEDAKRLSEFWEETGWKMLEIPEEEFKVEFVEVQPIERAPIFENKRCEKCGELAMATRVKDGLCLRCAGSYYAVVGRGIVKFDGEMREVV”: the “soluble on expression in E. coli” value was “not soluble”.

Turning to “MTTFERIKKLSAKKGITISQLTSELEMGENSIYRWKTQKPALDKLQKVADYFNVSIDYLLGRTDNPQIDSDIPPEATTLAAHIDPAATEEDMKKILEYIDFIQQKYK”, the “soluble on expression in E. coli” value is recorded as “not soluble”.

On to “AQVEPTVAYPHIPSNGRVAGSDRIRVTHAYVGSCTNGRITDLRDVARILKGRKVAQDVQMIVVPATQAIWKQAAQEGLLEIFVDAGASVSYPSCGACLGMHSGVLGPDDICISSSNRNFVGRMGDPSAQIYLASPATVAASAVEGFIADPRRYDAEGND”, for which the “soluble on expression in E. coli” value was “not soluble”.

Consider “MSLAQTQLSYKNKTYQISYEILGDLSLPQILILHGWGADKKLMKQSFCPFLKDFCQIYMDLAGFGNSSVEEILNTQDYANITELFLKQKKLNVCFFMGHSFGGKVSTLLAKEKDTLILLSSAGILAKKSLKVRFKIRIFKILKLFGLGKFYRYFASKDGANLSPIMYETFKKVVDEDFSEIFAKQKAKSLIFWGKSDEATPLYCGEKMHQFLKNSTFYPLEGDHFFFLKHSAFIAQKIKEEGHHHHHH”, for which the “soluble on expression in E. coli” value is reported as “soluble”.

As for “MGSDKIHHHHHHMAAQNAFEQKKRAILNEIDSTQPDLSPKGTIDELCLPIIDLINASADMVTTSSCSGRVSVFLEGTKSYNGEVKIGGKGQGGKWLYVTHDREKVIGWLDELKSKSEFSFELSGKEIPTEKVTGSIRYILYKYEPFILHVKCRDFQAASKLYNTAMSCGFRESGIGSNNLVAIRINIKLDVPLGYLDETSGTLKFFVTPEYVSVLDSLSLSKFDENTRKMQALYDRIEKELINCAPDVNSKVNITPIETKEERRERKKREGMERQRQLKSPQNVL”, the “soluble on expression in E. coli” value is reported as “not soluble”.

For the sequence “MGRKKKKVDKPWCWYCNREFDDEKILIQHQKAKHFKCHICHKKLFSGPGLSIHCMQVHKETIDKIPAAVHGRDNIHVEIYGMQGIPSGAYRGAADEEPDEKRSRMDNGPPMPTPMPFPQHFPFPGMPPMPSGPPPPSMAYGMPPMPSGMMPPRGMPGAYPPPRGYPPAPAPGVYMPPPGMPGAYPPPRMPIGHGPPGGPPMPGPPQRSRFDQPDGGDRWGPPMRGVPRTPPYENEHEHQDYQAPDDYNQGGYDDRFREGDRGGPPGGSRFDQVKAELKEEIVEPNNGPPTTSSGAAAASAAAVVASKLGSRTRIVYPDDHSLSLEERRVKMLFEKRSNPYH”, the “soluble on expression in E. coli” value was “soluble”.

For “MIRIGVLISGSGTNLQAILDGCREGRIPGRVAVVISDRADAYGLERARRAGVDALHMDPAAYPSRTAFDAALAERLQAYGVDLVCLAGYMRLVRGPMLTAFPNRILNIHPSLLPAFPGLEAQRQALEHGVKVAGCTVHFVTAGVDEGPIILQAAVPVLEGDTVEDLRRRILAEEHRIYPEAIRLFAEGRLVIEGRRVRILDRAEAPRG”, the “soluble on expression in E. coli” value is listed as “soluble”.

For the sequence “PNVVKMNKPFISLCPEITRAHALTLMDWLEDEHVTRHLSDSRHVSRFIEQVIDRVQLPVLTHLFNQGGRFFMAYDRHDVPVGFVRLVKTGSDCEIVLVIGNRDNWGRKLGASAIREGMKLAFFEMRAARLIAKVHPDNERSLNAFLRCGFVLESETP”, the “soluble on expression in E. coli” value is recorded as “not soluble”.
